Among the data in article PMC12024540, “Peptide-Based Regulation of TNF-α-Mediated Cytotoxicity” (Biomolecules, 2025) are Kd and neutralization of TNF-α-induced cytotoxicity on L929 cells (MTT, 1 ng/mL TNF-α with actinomycin D, peptide 1 pM to 10 μM); blocks TNF-α with TNFR1 values, retold here.

Read-outs that look alike come from different tables or passages of the source.

A word on the Kd: it is the free concentration of one partner at which half of the binding sites on the other are occupied at equilibrium, for simple one-to-one binding.

The target in assay [1] is recombinant human tumor necrosis factor alpha (rhTNF-α) (human). In words: MST; labelled rhTNF-α (RED-NHS 2nd Generation) at 20 nM, peptide titrated in 16 serial dilutions, PBS, 20 min incubation in the dark, Monolith NT.115 Pico, medium MST power.
The target is the same in assay [2].
The target is the same in assay [3]. The source holds these as a separate data set.

Chain of recombinant human tumor necrosis factor alpha (rhTNF-α) (human) (P01375 77-233): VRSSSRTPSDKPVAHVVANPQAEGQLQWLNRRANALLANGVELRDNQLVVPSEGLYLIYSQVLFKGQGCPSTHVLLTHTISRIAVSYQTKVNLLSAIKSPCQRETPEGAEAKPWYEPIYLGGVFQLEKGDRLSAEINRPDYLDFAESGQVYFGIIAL

For KGGGSGGGSHIHDDLLRYYGW [OB1 peptide], in assay [1], the Kd stood at 300 nM. For the same molecule, in assay [2], the neutralization of TNF-α-induced cytotoxicity on L929 cells (MTT, 1 ng/mL TNF-α with actinomycin D, peptide 1 pM to 10 μM); blocks TNF-α with TNFR1 is 4.6 nM.
Turning to KRWSRYFWVDMTGTR [OB8 peptide], in assay [1], the equilibrium dissociation constant (Kd) is 3890 nM. Besides, the neutralization of TNF-α-induced cytotoxicity on L929 cells (MTT, 1 ng/mL TNF-α with actinomycin D, peptide 1 pM to 10 μM); blocks TNF-α with TNFR1 in assay [3] came to 7.5 µM.
For KGGGSGGGSGGGSRKEMGQV [OB2 peptide], the dissociation constant (Kd) in assay [1] was determined as 46.7 nM. In addition, in assay [2], the neutralization of TNF-α-induced cytotoxicity on L929 cells (MTT, 1 ng/mL TNF-α with actinomycin D, peptide 1 pM to 10 μM); blocks TNF-α with TNFR1 turned out to be 81 pM.
